Source: patent US20230312709A1 (GUANGDONG FEIPENG PHARMACEUTICAL, published 2023)
Read-outs that look alike come from different tables or passages of the source.

Legend:
[1] = molecular target: T1, human CD47 on CCRF-CEM cells (human, UniProt Q08722 19-323); assay: flow cytometry on CCRF-CEM cells, MFI curve
T1 construct: whole, on cells
Method: The specific steps were as follows.
A cell line CCRF-CEM (Cell Bank of Chinese Academy of Sciences, Shanghai) expressing human CD47 was used, which belongs to human acute lymphoblastic leukemia T lymphocytes. […] Then, the cells were washed at least twice, a PE Goat anti human IgG Fc (1:500× dilution) fluorescent secondary antibody was prepared with a FCM buffer (1×PBS+3% BSA), added to a corresponding 96-well plate according to 100 μL/well, and incubated in a refrigerator at 4° C. for 30 min. The 96-well plate was taken out, and centrifuged at 250 g for 5 min, after a supernatant was carefully removed, the FCM buffer was added at 200 μL/well, and it was centrifuged again at 250 g for 5 min, the supernatant was carefully removed. The cells were washed at least twice and resuspended using 100 μL/well 1×PBS, and analyzed by the flow cytometry, and a concentration-dependent curve was fitted with GraphPad according to the mean fluorescence intensity (MFI) thereof.

[2] = molecular target: T2, monkey CD47 on CHO-cynoCD47 cells (monkey); assay: flow cytometry on CHO-cynoCD47 cells, MFI curve
T2 construct: whole, on cells; Cell line named CHO-cynoCD47; the text calls the species 'monkey'
Method: Then, the cells were washed at least twice, a PE Goat anti human IgG Fc (1:500× dilution) fluorescent secondary antibody was prepared with a FCM buffer (1×PBS+3% BSA), added to a corresponding 96-well plate according to 100 μL/well, and incubated in a refrigerator at 4° C. for 30 min. The 96-well plate was taken out, and centrifuged at 250 g for 5 min, after a supernatant was carefully removed, the FCM buffer was added at 200 μL/well, and it was centrifuged again at 250 g for 5 min, the supernatant was carefully removed. The cells were washed at least twice and resuspended with 1×PBS at 100 μL/well, and analyzed by the flow cytometry, and a concentration-dependent curve was fitted with GraphPad according to MFI thereof.

[3] = molecular target: T1, human CD47 on CCRF-CEM cells; assay: flow cytometry competition on CCRF-CEM cells; blocked ligand hSIRPα-mFC, detected with PE goat anti-mouse IgG Fc
[4] = molecular target: T3, hCD47-ECD-HIS recombinant protein (human, UniProt Q08722 19-139, limits assumed); assay: BLI (ForteBio), antibody on AHC sensor, 100 nM CD47 antigen, 1:1 model
T3 construct: extracellular domain; also called hCD47 antigen; CD47 antigen
Method: An equilibrium dissociation constant (KD) of the antibody of the present application binding to human CD47 (hCD47) was determined by a biofilm interferometry (ForteBio). […] Kinetic analysis was performed with a 1:1 binding model.

[5] = molecular target: T1, human CD47 on CCRF-CEM cells; assay: flow cytometry competition on CCRF-CEM cells; blocked ligand hSIRPα-mFC, detected with PE goat anti-mouse IgG Fc; remark: listed apart in the source

| Binder | EC50 [1] [nM] | EC50 [2] [nM] | IC50 (read off the curve) [3] [nM] | Kd [4] [nM] | koff [4] [s⁻¹] | kon [4] [M⁻¹ s⁻¹] | IC50 (read off the curve) [5] [nM] |
| --- | --- | --- | --- | --- | --- | --- | --- |
| 7A11H32 (antibody, V domains shown, also called CD47 antibody) VH: QVQLVQSGAEVKKPGSSVKVSCKASGSSFTSNWMNWVRQAPGQGLEWIGMIHPSDSETRLNQKFKDRVTITADKSTSTAYMELSSLRSEDTAVYYCARGTTVVDAFAYWGQGTTVTVSS VL: DIQMTQSPSSLSASVGDRVTMTCKSSQSLLNSRTRKNYLAWYQQKPGKAPKLLIYWASTRESGVPSRFSGSGSGTDFTLTISSLQPEDFATYYCKQSYNLRTFGGGTKLEIK | 0.717 | 17.1 | ~2 |  |  |  |  |
| 7A11H15 (antibody, V domains shown, also called CD47 antibody) VH: QVQLVQPGAEVKKPGASVKLSCKASGSSFTSNWMNWVRQAPGQGLEWIGMIHPSDSETRLNQKFKDRATLTVDKSTSTAYMELSSPRSEDTAVYYCARGTTVVDAFAYWGQGTTVTVSS VL: EIVMTQSPPTLSLSPGERVTMSCKSSQSLLNSRTRKNYLAWYQQKPGQAPRLLIYWASTRESGIPARFSGSGSGTDFTLTISSLQPEDFAVYYCKQSYNLRTFGGGTKLEIK | 0.723 | 7.27 |  | 0.212 | 0.000313 | 1.48e+06 | ~2 |
| 7A11H14 (antibody, V domains shown, also called CD47 antibody) VH: QVQLVQPGAEVKKPGASVKLSCKASGSSFTSNWMNWVRQAPGQGLEWIGMIHPSDSETRLNQKFKDRATLTVDKSTSTAYMELSSPRSEDTAVYYCARGTTVVDAFAYWGQGTTVTVSS VL: DIVMTQSPDSLAVSLGERATMNCKSSQSLLNTRTRKNYLAWYQQKPGQPPKLLIYWASTRESGVPDRFSGSGSGTDFTLTISSLQAEDVAVYYCKQSYNLRTFGGGTKLEIK | 0.933 | 4.96 |  | 0.562 |  |  |  |
| 7A11H11 (antibody, V domains shown, also called CD47 antibody) VH: QVQLVQPGAEVKKPGASVKLSCKASGSSFTSNWMNWVRQAPGQGLEWIGMIHPSDSETRLNQKFKDRATLTVDKSTSTAYMELSSPRSEDTAVYYCARGTTVVDAFAYWGQGTTVTVSS VL: DIVMTQSPDSLAVSLGERATMNCKSSQSLLNSRTRKNYLAWYQQKPGQPPKLLIYWASTRESGVPDRFSGSGSGTDFTLTISSLQAEDVAVYYCKQSYNLRTFGGGTKLEIK | 0.822 | 8.93 | ~2 | 0.59 |  |  |  |
| 7A11H22 (antibody, V domains shown, also called CD47 antibody) VH: QVQLVQSGAEVKKPGASVKVSCKASGSSFTSNWMNWVRQAPGQGLEWIGMIHPSDSETRLNQKFKDRATLTVDKSTSTAYMELSSLRSEDTAVYYCARGTTVVDAFAYWGQGTTVTVSS VL: DIQMTQSPSSLSASVGDRVTMTCKSSQSLLNSRTRKNYLAWYQQKPGKAPKLLIYWASTRESGVPSRFSGSGSGTDFTLTISSLQPEDFATYYCKQSYNLRTFGGGTKLEIK | 0.82 | 8.55 | ~2 | 0.74 |  |  |  |
| 7A11H35 (antibody, V domains shown, also called CD47 antibody) VH: QVQLVQSGAEVKKPGSSVKVSCKASGSSFTSNWMNWVRQAPGQGLEWIGMIHPSDSETRLNQKFKDRVTITADKSTSTAYMELSSLRSEDTAVYYCARGTTVVDAFAYWGQGTTVTVSS VL: EIVMTQSPPTLSLSPGERVTMSCKSSQSLLNSRTRKNYLAWYQQKPGQAPRLLIYWASTRESGIPARFSGSGSGTDFTLTISSLQPEDFAVYYCKQSYNLRTFGGGTKLEIK | 0.862 | 4.38 |  | 0.881 |  |  |  |
| 7A11H12 (antibody, V domains shown, also called CD47 antibody) VH: QVQLVQPGAEVKKPGASVKLSCKASGSSFTSNWMNWVRQAPGQGLEWIGMIHPSDSETRLNQKFKDRATLTVDKSTSTAYMELSSPRSEDTAVYYCARGTTVVDAFAYWGQGTTVTVSS VL: DIQMTQSPSSLSASVGDRVTMTCKSSQSLLNSRTRKNYLAWYQQKPGKAPKLLIYWASTRESGVPSRFSGSGSGTDFTLTISSLQPEDFATYYCKQSYNLRTFGGGTKLEIK | 0.716 | 7.35 | ~0.9 | 0.459 |  |  |  |
| 7A11H52 (antibody, V domains shown, also called CD47 antibody) VH: QVQLVQSGAEVKKPGSSVKVSCKASGGTFTSNWMNWVRQAPGQGLEWIGMIHPSDSETRLNQKFQGRVTITADKSTSTAYMELSSLRSEDTAVYYCARGTTVVDAFAYWGQGTTVTVSS VL: DIQMTQSPSSLSASVGDRVTMTCKSSQSLLNSRTRKNYLAWYQQKPGKAPKLLIYWASTRESGVPSRFSGSGSGTDFTLTISSLQPEDFATYYCKQSYNLRTFGGGTKLEIK | 0.915 | 4.51 |  |  |  |  |  |
| 7A11H34 (antibody, V domains shown, also called CD47 antibody) VH: QVQLVQSGAEVKKPGSSVKVSCKASGSSFTSNWMNWVRQAPGQGLEWIGMIHPSDSETRLNQKFKDRVTITADKSTSTAYMELSSLRSEDTAVYYCARGTTVVDAFAYWGQGTTVTVSS VL: DIVMTQSPDSLAVSLGERATMNCKSSQSLLNTRTRKNYLAWYQQKPGQPPKLLIYWASTRESGVPDRFSGSGSGTDFTLTISSLQAEDVAVYYCKQSYNLRTFGGGTKLEIK | 1.2 | 8.61 |  |  |  |  |  |
| 7A11H42 (antibody, V domains shown, also called CD47 antibody) VH: QVQLVQSGAEVKKPGSSVKVSCKASGSSFTSNWMNWVRQAPGQGLEWIGMIHPSDSETRLNQKFQGRVTITADKSTSTAYMELSSLRSEDTAVYYCARGTTVVDAFAYWGQGTTVTVSS VL: DIQMTQSPSSLSASVGDRVTMTCKSSQSLLNSRTRKNYLAWYQQKPGKAPKLLIYWASTRESGVPSRFSGSGSGTDFTLTISSLQPEDFATYYCKQSYNLRTFGGGTKLEIK | 0.727 | 5 | ~2 | 0.309 |  |  |  |
| 7A11H55 (antibody, V domains shown, also called CD47 antibody) VH: QVQLVQSGAEVKKPGSSVKVSCKASGGTFTSNWMNWVRQAPGQGLEWIGMIHPSDSETRLNQKFQGRVTITADKSTSTAYMELSSLRSEDTAVYYCARGTTVVDAFAYWGQGTTVTVSS VL: EIVMTQSPPTLSLSPGERVTMSCKSSQSLLNSRTRKNYLAWYQQKPGQAPRLLIYWASTRESGIPARFSGSGSGTDFTLTISSLQPEDFAVYYCKQSYNLRTFGGGTKLEIK | 1.21 | 4.62 |  |  |  |  |  |
| 7A11H33 (antibody, V domains shown, also called CD47 antibody) VH: QVQLVQSGAEVKKPGSSVKVSCKASGSSFTSNWMNWVRQAPGQGLEWIGMIHPSDSETRLNQKFKDRVTITADKSTSTAYMELSSLRSEDTAVYYCARGTTVVDAFAYWGQGTTVTVSS VL: DIQMTQSPSSLSASVGDRVTMTCKSSQSLLNTRTRKNYLAWYQQKPGKAPKLLIYWASTRESGVPSRFSGSGSGTDFTLTISSLQPEDFATYYCKQSYNLRTFGGGTKLEIK | 0.76 | 4.85 |  | 0.36 |  |  |  |
| Hu5F9-G4 (antibody, V domains shown) VH: QVQLVQSGAEVKKPGASVKVSCKASGYTFTNYNMHWVRQAPGQRLEWMGTIYPGNDDTSYNQKFKDRVTITADTSASTAYMELSSLRSEDTAVYYCARGGYRAMDYWGQGTLVTVSS VL: DIVMTQSPLSLPVTPGEPASISCRSSQSIVYSNGNTYLGWYLQKPGQSPQLLIYKVSNRFSGVPDRFSGSGSGTDFTLKISRVEAEDVGVYYCFQGSHVPYTFGQGTKLEIKR |  | 5.12 |  |  |  |  |  |
